Measurements reported in publication PMC5411712.

T1: SRF (rSRF) (UniProt P11831 1-508)
T1 sequence: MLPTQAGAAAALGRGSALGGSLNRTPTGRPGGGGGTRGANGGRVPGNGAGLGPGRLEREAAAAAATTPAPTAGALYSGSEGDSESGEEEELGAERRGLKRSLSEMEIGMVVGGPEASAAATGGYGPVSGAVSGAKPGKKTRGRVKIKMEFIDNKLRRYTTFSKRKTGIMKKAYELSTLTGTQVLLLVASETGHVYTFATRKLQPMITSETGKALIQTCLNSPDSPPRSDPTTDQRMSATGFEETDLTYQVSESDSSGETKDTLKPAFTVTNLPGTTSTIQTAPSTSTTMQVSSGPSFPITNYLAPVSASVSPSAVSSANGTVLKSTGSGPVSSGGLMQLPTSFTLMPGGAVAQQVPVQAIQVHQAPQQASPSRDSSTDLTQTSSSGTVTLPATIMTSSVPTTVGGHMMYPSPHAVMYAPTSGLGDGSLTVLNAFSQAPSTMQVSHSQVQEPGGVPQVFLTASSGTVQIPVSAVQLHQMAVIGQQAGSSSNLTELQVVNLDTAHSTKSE


Assays:
SRF (rSRF) [1] = biological target: T1, SRF (rSRF); test: EMSA; 10 mM Tris pH 8.0, 1 mM EDTA, 8% glycerol, 10 ul, ~150 ng fluorescein-labelled DNA, 1 h at room temperature; 4-20% Tris-glycine native gel, pH 8.3
SRF (rSRF);PTEN (rPTEN) [2] = biological target: T2, SRF (rSRF);PTEN (rPTEN) (;, UniProt P11831;P60484 1-508;1-403, |); test: EMSA; lower mobility complex on adding rPTEN; 10 mM Tris pH 8.0, 1 mM EDTA, 8% glycerol, 10 ul, ~150 ng fluorescein-labelled DNA, 1 h at room temperature; 4-20% Tris-glycine native gel, pH 8.3
SRF (rSRF);PTEN (rPTEN) [3] = biological target: T2, SRF (rSRF);PTEN (rPTEN); test: EMSA, supershift and western blot of EMSA; higher mobility complex than rSRF alone; supershifted by PTEN or SRF antibody; 10 mM Tris pH 8.0, 1 mM EDTA, 8% glycerol, 10 ul, ~150 ng fluorescein-labelled DNA, 1 h at room temperature; 4-20% Tris-glycine native gel, pH 8.3
PTEN (rPTEN) = PTEN (rPTEN) (UniProt P60484 1-403); test: EMSA; rPTEN alone; 10 mM Tris pH 8.0, 1 mM EDTA, 8% glycerol, 10 ul, ~150 ng fluorescein-labelled DNA, 1 h at room temperature; 4-20% Tris-glycine native gel, pH 8.3
SRF (rSRF) [4] = biological target: T1, SRF (rSRF); test: EMSA; two bands at 1 ul rSRF; single lower mobility band at saturating 3 ul; 10 mM Tris pH 8.0, 1 mM EDTA, 8% glycerol, 10 ul, ~150 ng fluorescein-labelled DNA, 1 h at room temperature; 4-20% Tris-glycine native gel, pH 8.3

Binder | binding result (SRF (rSRF) [1]) | binding result (SRF (rSRF);PTEN (rPTEN) [2]) | binding result (SRF (rSRF);PTEN (rPTEN) [3]) | binding result (PTEN (rPTEN)) | binding result (SRF (rSRF) [4])
CArG B 20-bp probe (Acta2) (dsDNA) DNA 1: GAGGTCCCTATATGGTTGTG DNA 2: CACAACCATATAGGGACCTC | binds | binds | – | – | –
CArG A+B 95-bp probe (Acta2) (dsDNA) DNA 1: AATTCTGGGGTGTATCTTGCCCTATATGGGATATCGCTCTGACCGTTAACTAGGACTAGCTGAGGGTAGCCTTGTTTGGCTGCATCTGTTTCTTTTCGGCTAGC DNA 2: GCTAGCCGAAAAGAAACAGATGCAGCCAAACAAGGCTACCCTCAGCTAGTCCTAGTTAACGGTCAGAGCGATATCCCATATAGGGCAAGATACACCCCAGAATT | – | – | binds | no binding | binds
